B1: Calm2 3'UTR EMSA probe (ssRNA)
RNA: GUAGCUUUUAGGAACUGUCAGCAUGUUGUUGUUGAAGUGUGGAGCUGUAACUCUGCGUGGACUGUGGACAGUCAACAAUAUGUACUUAAAAGUUGCACUAUUGCAA
B2: Dusp9 3'UTR EMSA probe (ssRNA)
RNA: GGCCACUUUGACUCGUGUAGACUCCUUCCUGCUUCUCUCACUAGGGCUUAGACUUCUUGGAACUGUAGGGUGUGAACCCAGAGAC
B3: Dcaf12l1 3'UTR EMSA probe (ssRNA)
RNA: UCAAAUAGAGGAGCUGGGGAUUAAAAAGAUAGGUCUGAUUAAAGGACUGUGCAGUUCAGAUAAAUAGAGAUAAUGGGAUGCCGUGCGGAUAGAUUGGUUUUCUCC

Assays:
GFP (control protein) = GFP (control protein) (UniProt P42212 P42212:1-238); assay: EMSA; control protein; details: tags: Flag; label: radiolabelled
Protocol: (§1) RNA-EMSA assays with CBX7 protein were performed as follows. Labeled RNAs were produced with MEGAscript® T7 Transcription Kit (Life Technologies) and purified from 6% acrylamide TBE-urea gels. Labeled RNAs were prefolded in buffer TE+300 mM NaCl by incubating for 2 min at 95° C., followed by 20 min incubation on ice. Binding reactions were assembled with 20 μl of binding mix (13 mM Tris pH 8.0, 0.2 mM EDTA, 68.8 mM NaCl, 20% Glycerol, 0.2 mg/ml Yeast tRNA, 4 mM DTT, 4 μl 2500 cpm/μl RNA probe). LNA oligonucleotides were added to binding mix at final concentration of 8 μM and samples were pre-incubated on ice for 10 min. After pre-incubation, binding mix samples were combined with 60 μl of purified protein in dialysis buffer (50 mM Tris pH 7.4, 5 mM MgCl₂, 50 mM NaCl, 1 mM DTT, 10% Glycerol, 4 u/μl Protector RNAse inhibitor (Roche)). Control experiments were performed with dialysis buffer only or control proteins—Flag-GFP or GST-Flag-HA, dissolved in dialysis buffer at the highest protein concentration in the particular experiment. After 30 min on ice, the sample was loaded onto a 5% 37:1 acrylamide (Bio-Rad) gel in 0.5× TBE buffer (45 mM Tris-Borate, 1 mM disodium EDTA) and run for 90 min at 250 V at 4° C. Gels were exposed to phosphorimager screens. For validation of motif sequences, labeled RNA probes were produced with MEGAshortscript™ T7 Transcription Kit (Life Technologies) and gel purified using 15% TBE-urea gels (Life technologies) Similar RNA-EMSA conditions were applied except 8% 37:1 acrylamide (Bio-Rad) gels replaced 5% gels.

CBX7 [1] = target: T1, CBX7 (Mus musculus, UniProt Q8VDS3 Q8VDS3:1-158); assay: EMSA; low micromolar range, value only in figure; positive cooperativity; yeast tRNA, Mg2+, on ice; details: tags: C-terminal Flag-HA; baculovirus Sf9, anti-FLAG M2 purified; label: radiolabelled
Protocol: as §1, with “For validation of motif sequences, labeled RNA probes were produced with MEGAshortscript™ T7 Transcription Kit (Life Technologies) and gel purified using 15% TBE-urea gels (Life technologies) Similar RNA-EMSA conditions were applied except 8% 37:1 acrylamide (Bio-Rad) gels replaced 5% gels.” left out

CBX7 [2] = target: T1, CBX7; assay: EMSA; low micromolar range, value only in figure; Hill coefficient suggests cooperativity, 2-3 sites; yeast tRNA, Mg2+, on ice; competed by cold Dcaf12l1; details: tags: C-terminal Flag-HA; baculovirus Sf9, anti-FLAG M2 purified; label: radiolabelled
Protocol: as §1, with “For validation of motif sequences, labeled RNA probes were produced with MEGAshortscript™ T7 Transcription Kit (Life Technologies) and gel purified using 15% TBE-urea gels (Life technologies) Similar RNA-EMSA conditions were applied except 8% 37:1 acrylamide (Bio-Rad) gels replaced 5% gels.” left out

T1 sequence (Q8VDS3 whole entry, one chain of several): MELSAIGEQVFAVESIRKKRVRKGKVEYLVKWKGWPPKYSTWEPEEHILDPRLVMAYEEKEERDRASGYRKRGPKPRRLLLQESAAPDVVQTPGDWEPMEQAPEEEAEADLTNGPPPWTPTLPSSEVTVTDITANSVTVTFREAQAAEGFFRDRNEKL

Binder | binding result (GFP (control protein)) | binding result (CBX7 [1]) | binding result (CBX7 [2])
B1 | no binding | binds | –
B2 | no binding | binds | –
B3 | no binding | – | binds

Source: patent US20200157537, “Modulating RNA Interactions with Polycomb Repressive Complex 1 (PRC1)” (The General Hospital Corporation, published 2020)
